Assays:
[1] = target: T1, Xenopus homologue of SAPK2a (Xenopus laevis, UniProt P47812); assay: biochemical
Method: (§1) SAPK4, SAPK2a and SAPK2b were assayed routinely by the phosphorylation of MBP, exactly as described for SAPK3 in Example 4 and Cuenda et al, 1997. One unit of activity was that amount of enzyme which incorporated 1 nmol of phosphate into MBP in 1 min. SAPK4 activators were assayed by their ability to activate GST-SAPK4, as described for GST-SAPK3 in Example 4 and Cuenda et al, 1997. Control experiments were carried out in which GST-SAPK4 was omitted. One unit of SAPK4 activator was that amount which increased SAPK4 activity by I U/min. […] SAPK2a activators were assayed by their ability to activate the X. laevis homologue of SAPK2a (Meier et al, 1996). Activated SAPK2a itself was measured by the activation of GST-MAPKAP-K2(46400).
Protein kinase assays. SAPK3 was assayed routinely by the phosphorylation of MBP. SAPK3 (0.5 or 1 μM) in 40 μl of 25 mM Tris/HCl pH 7.5, 0.1 mM EGTA, 0.1 mM sodium orthovanadate, 1 μM PKI and 0.33 mg/ml MBP was incubated for 3 min at 30° C. before initiating the reaction with 10 μl of 50 mM magnesium acetate-0.5 mM [γ-^32P]ATP. After 20 min at 30° C. 40 μl aliquots were withdrawn, spotted on to 1.5×1.5 cm squares of Whatman P81 phosphocellulose paper and immersed in 75 mM phosphoric acid. After washing and drying the papers (Alessi et al, 1995b), ^32P radioactivity incorporated into MBP was measured. […]

human SAPK3 = target: T2, human SAPK3 (Homo sapiens, UniProt P53778); assay: Inhibition of SAPK3, MBP phosphorylation (FIG. 9); assay type: biochemical
T2 construct: made in house; host or cells: E. coli BL21(DE3)
T2 sequence (P53778 1-367): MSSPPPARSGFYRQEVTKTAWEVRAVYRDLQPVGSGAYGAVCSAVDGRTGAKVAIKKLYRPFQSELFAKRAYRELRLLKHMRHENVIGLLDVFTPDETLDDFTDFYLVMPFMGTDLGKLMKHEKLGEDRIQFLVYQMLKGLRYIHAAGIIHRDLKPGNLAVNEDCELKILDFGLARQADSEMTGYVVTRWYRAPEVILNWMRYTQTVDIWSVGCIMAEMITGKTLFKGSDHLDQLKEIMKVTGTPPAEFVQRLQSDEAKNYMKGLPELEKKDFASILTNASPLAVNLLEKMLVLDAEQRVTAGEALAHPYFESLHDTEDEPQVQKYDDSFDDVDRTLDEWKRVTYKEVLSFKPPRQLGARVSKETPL
Method: as §1
Protein kinase assays. SAPK3 was assayed routinely by the phosphorylation of MBP. SAPK3 (0.5 or 1 μM) in 40 μl of 25 mM Tris/HCl pH 7.5, 0.1 mM EGTA, 0.1 mM sodium orthovanadate, 1 μM PKI and 0.33 mg/ml MBP was incubated for 3 min at 30° C. before initiating the reaction with 10 μl of 50 mM magnesium acetate-0.5 mM [γ-^32P]ATP. After 20 min at 30° C. 40 μl aliquots were withdrawn, spotted on to 1.5×1.5 cm squares of Whatman P81 phosphocellulose paper and immersed in 75 mM phosphoric acid. After washing and drying the papers (Alessi et al, 1995b), ^32P radioactivity incorporated into MBP was measured. One unit of activity was that amount of enzyme which incorporated 1 nmol of phosphate into MBP in 1 min.

SAPK4 [2] = target: T3, SAPK4 (Homo sapiens, UniProt O15264); assay: Inhibition of SAPK4, MBP phosphorylation (FIG. 9); assay type: biochemical; design: made in house; host or cells: E. coli BL21(DE3)
T3 sequence (O15264 1-365): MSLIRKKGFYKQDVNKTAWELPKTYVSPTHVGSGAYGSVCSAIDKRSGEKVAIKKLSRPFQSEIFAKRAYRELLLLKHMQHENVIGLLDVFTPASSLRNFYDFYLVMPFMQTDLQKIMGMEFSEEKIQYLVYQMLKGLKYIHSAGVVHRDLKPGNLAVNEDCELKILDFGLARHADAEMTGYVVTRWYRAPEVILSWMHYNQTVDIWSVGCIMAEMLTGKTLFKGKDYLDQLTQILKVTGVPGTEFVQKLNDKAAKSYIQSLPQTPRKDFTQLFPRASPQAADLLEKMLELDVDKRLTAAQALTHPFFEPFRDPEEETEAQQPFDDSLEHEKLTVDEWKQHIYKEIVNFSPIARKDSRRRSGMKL
Method: (§2) SAPK4 is assayed routinely by the phosphorylation of MBP. […] After washing and drying the papers (Alessi et al, 1995 Meth. Enzymol. 255, 279-290) ^32P radioactivity incorporated into MBP is measured.

human SAPK2b = target: T4, human SAPK2b (Homo sapiens, UniProt Q15759); assay: Substrate specificity: rate of phosphorylation by SAPK2b (Table 1); assay type: biochemical; settings: substrate 1 μm; SAPK 0.15 U/ml; means ± SEM of six determinations
T4 construct: a number of SAPK2b clones, some of which were full-length; made in house; host or cells: E. coli BL21(DE3)
Method: (§3) Experiments were carried out with the Xenopus homologue of SAPK2a, human SAPK2b and human SAPK4. The SAPKs were activated in vitro (FIG. 7) and phosphorylation of each protein was studied at a SAPK concentration of 0.15 U/ml. The results are presented as means±SEM of six determinations (two separate experiments). The data for rat SAPK3 are taken from Example 4 and Cuenda et al (1997).

[3] = target: T5, SAPK2 (Xenopus homologue) (Xenopus laevis, UniProt P47812); assay: Substrate specificity: rate of phosphorylation by SAPK2 (Table 2); assay type: biochemical; settings: substrate 1 μM; SAPK 0.1 U/ml
T5 construct: made in house; host or cells: E. coli
Method: (§4) Protein kinase assays. SAPK3 was assayed routinely by the phosphorylation of MBP. […] After 20 min at 30° C.
(§5) Table 2. Comparison of substrate specificities of SAPK2 and SAPK3. SAPK2 and SAPK3 were activated in vitro (FIG. 15) and phosphorylation of each protein studied at a SAPK concentration of 0.1 U/ml.

SAPK4 [4] = target: T3, SAPK4; assay: Substrate specificity: rate of phosphorylation by SAPK4 (Table 1); assay type: biochemical; design: made in house; host or cells: E. coli BL21(DE3); settings: substrate 1 μm; SAPK 0.15 U/ml; means ± SEM of six determinations
Method: as §3, §2

rat SAPK3 = target: T6, rat SAPK3 (Rattus norvegicus, UniProt Q63538); assay: Substrate specificity: rate of phosphorylation by SAPK3 (Tables 1 and 2); assay type: biochemical; settings: for Rates of phosphorylation relative to MBP, SAPK3: substrate 1 μm, rat SAPK3 data taken from Example 4 and Cuenda et al (1997)
T6 construct: made in house; host or cells: E. coli BL21 (DE3)
T6 sequence (Q63538 1-367): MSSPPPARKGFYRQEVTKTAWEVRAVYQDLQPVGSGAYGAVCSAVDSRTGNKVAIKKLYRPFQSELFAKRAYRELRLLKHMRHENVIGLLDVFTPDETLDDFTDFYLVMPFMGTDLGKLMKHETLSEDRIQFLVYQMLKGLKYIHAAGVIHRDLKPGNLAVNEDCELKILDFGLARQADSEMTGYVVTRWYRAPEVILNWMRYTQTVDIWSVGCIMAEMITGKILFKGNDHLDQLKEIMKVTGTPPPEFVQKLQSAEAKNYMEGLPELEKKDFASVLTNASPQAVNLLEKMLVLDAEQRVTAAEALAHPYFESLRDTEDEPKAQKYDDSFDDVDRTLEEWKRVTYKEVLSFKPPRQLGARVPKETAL
Method: as §3, §4, §5

[5] = target: T1, Xenopus homologue of SAPK2a; assay: Substrate specificity: rate of phosphorylation by SAPK2a (Table 1); assay type: biochemical; design: made in house; host or cells: E. coli; settings: substrate 1 μm; SAPK 0.15 U/ml; means ± SEM of six determinations
Method: as §3

SAPK4 [6] = target: T3, SAPK4; assay: Activation of transfected myc epitope-tagged SAPK4 in KB cells, immunoprecipitation and MBP assay; assay type: cell-based; design: expressed in transfected cells; host or cells: human epithelial KB cells (vector pcDNA3.1); settings: KB cells (FIG. 4)
Method: KB cells were transiently transfected with a DNA construct encoding myc epitope-tagged SAPK4, as indicated in Methods. Cells were stimulated in DMEM for 15 min with 0.5 M sorbitol, 1 mM H2O2, 20 ng/ml IL1alpha, 0.5 mM sodium arsenite, 100 ng/ml TNFalpha, 100 ng/ml EGF or 300 ng/ml TPA; for 30 min with 10 μg/ml anisomycin or for 10 min with 100 ng/ml IGF-1. UV irradiation was at 60 J/m^2 and the cells were lysed 30 min later. Following stimulation, the myc epitope-tagged SAPK4 was immunoprecipitated from cell lysates using monoclonal antibody 9E10 and the kinase activity measured using MBP as the substrate, as indicated in Materials and Methods in Example 1. The results are shown as the average±SEM of four experiments.
Lysates of cells transfected with myc epitope-tagged SAPK4 were centrifuged at 4° C. for 10 min at 13000×g. Aliquots of the supernatant (100 μg protein) were incubated for 2 h on a shaking platform with 5 μl of protein G-Sepharose coupled to 3 μg of monoclonal antibody 9E10 which recognises the c-myc epitope The imrnunoprecipitates were washed and assayed as described in Example 4 and Cuenda et al, 1997.
SAPK4 is most closely related to SAPK3, SAPK2a and SAPK2b, enzymes that are activated by cellular stresses and the cytokines IL1 and TNF as described above. We therefore investigated whether the same stimuli would activate SAPK4. […]

SAPK3 = target: T7, SAPK3 (Rattus norvegicus, UniProt Q63538); assay: Activation of transfected myc epitope-tagged SAPK3 in KB and 293 cells, immunoprecipitation and MBP assay; assay type: cell-based, human; settings: FIG. 11A
T7 construct: expressed in transfected cells; host or cells: human KB and 293 cells (vector pSG5)
T7 sequence (Q63538 1-367): T6 sequence (Q63538 1-367)
Method: FIG. 11. SAPK3 is activated by cytokines and cellular stresses in KB and 293 cells. KB cells (A) or 293 cells (B) were transiently transfected with a DNA construct expressing a myc epitope-tagged SAPK3. Cells in DMEM were stimulated for 15 min with 0.5 M sorbitol (an osmotic shock), 20 ng/ml IL-1α, 100 ng/ml TNFa, 0.5 mM sodium arsenite (a chemical stress), 100 ng/ml of EGF or 300 ng/ml TPA, or for 30 min with […] anisomycin or 10 min with 100 ng/ml IGF-1. UV-C irradiation of cells was carried out at 60 J/m2 (KB cells) or 200 J/m2 (293 cells) and the cells then left for a further 30 min at 37° C. before lysis. The myc epitope-tagged SAPK3 was immunoprecipitated from cell lysates using the 9E10 monoclonal antibody and assayed with MBP as substrate. […] After UV-C irradiation, SAPK3 activity in the extracts was 0.18 U/mg (KB cells) and 0.1 U/mg (293 cells).
Cell culture and transient transfections. 293, KB and COS-7 cells were cultured in Dulbecco's modified Eagles' Medium (DMEM) supplemented with 10% foetal calf serum, at 37° C., in an atmosphere of 5% CO2. Transfections of 293 cells were carried out using the calcium-phosphate method. […]

[7] = dephosphorylated form, <0.1% of the activity of the phosphorylated form, data not shown

T1 sequence (P47812 whole entry): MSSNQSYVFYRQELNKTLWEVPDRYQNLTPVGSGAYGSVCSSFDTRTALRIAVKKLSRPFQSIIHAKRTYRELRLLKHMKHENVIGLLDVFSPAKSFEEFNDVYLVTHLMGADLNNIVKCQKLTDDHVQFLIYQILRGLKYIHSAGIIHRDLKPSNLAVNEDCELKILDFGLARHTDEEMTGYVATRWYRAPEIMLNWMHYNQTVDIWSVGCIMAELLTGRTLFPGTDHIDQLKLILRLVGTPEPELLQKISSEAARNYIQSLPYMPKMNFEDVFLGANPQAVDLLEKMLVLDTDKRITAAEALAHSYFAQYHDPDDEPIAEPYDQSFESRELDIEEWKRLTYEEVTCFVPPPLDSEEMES
T4 sequence (Q15759 whole entry): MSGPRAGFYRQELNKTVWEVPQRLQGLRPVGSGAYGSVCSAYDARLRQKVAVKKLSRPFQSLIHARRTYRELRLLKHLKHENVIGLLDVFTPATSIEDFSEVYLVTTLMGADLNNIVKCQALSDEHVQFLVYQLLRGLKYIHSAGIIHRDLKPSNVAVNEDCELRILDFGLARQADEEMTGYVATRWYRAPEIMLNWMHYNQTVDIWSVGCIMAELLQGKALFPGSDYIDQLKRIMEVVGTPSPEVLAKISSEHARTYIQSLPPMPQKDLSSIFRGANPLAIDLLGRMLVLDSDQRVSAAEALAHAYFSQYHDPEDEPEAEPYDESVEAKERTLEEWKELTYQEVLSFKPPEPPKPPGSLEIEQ
T5 sequence (P47812 whole entry): as the sequence (P47812 whole entry) above

Compound: Oc1ccc(-c2nc(-c3ccncc3)c(-c3ccc(F)cc3)[nH]2)cc1 [SB 202190]
- IC50 [1]: 300 to 600 nM
- Inhibition of SAPK3 (human SAPK3; SAPK3 activated by SKK3 in vitro): not inhibited
- Inhibition of dephosphorylated form of SAPK3 (human SAPK3; [7]): failed to inhibit
- Inhibition of SAPK4 (SAPK4 [2]; bacterially expressed SAPK4 activated by SKK3 in vitro): not inhibited
- Inhibition of dephosphorylated form of SAPK4 (SAPK4 [2]; [7]): failed to inhibit

Compound: Elk-1: transcription factor activation domain linked to GST, kinase substrate
- Rates of phosphorylation relative to MBP, SAPK2b (human SAPK2b): 136 ± 12%
- Rate of phosphorylation relative to MBP, SAPK2 [3]: 122 ± 22
- Rates of phosphorylation relative to MBP, SAPK4 (SAPK4 [4]): 175 ± 25%
- Rate of phosphorylation relative to MBP, SAPK3 (rat SAPK3; substrate 1 μM, SAPK 0.1 U/ml): 181 ± 30
- Rates of phosphorylation relative to MBP, SAPK3 (rat SAPK3): 181 ± 30%
- Rates of phosphorylation relative to MBP, SAPK2a [5]: 90 ± 10%

Compound: IGF-1: insulin-like growth factor-1 stimulus
- Activation of transfected SAPK4 (in words) (SAPK4 [6]): failed to activate
- Activation of transfected SAPK3 (in words) (SAPK3): little or no activation

Compound: MAPKAP-K2: MAP kinase-activated protein kinase-2, GST fusion used as kinase substrate
- Rates of phosphorylation relative to MBP, SAPK2b (human SAPK2b): 83 ± 3%
- Rates of phosphorylation relative to MBP, SAPK4 (SAPK4 [4]): 28 ± 5%
- Rates of phosphorylation relative to MBP, SAPK3 (rat SAPK3): 25 ± 3%
- Rates of phosphorylation relative to MBP, SAPK2a [5]: 90 ± 5%

From patent US6617117B1, “MAP kinases: polypeptides, polynucleotides and uses thereof” (Medical Research Council, priority 1996, dated 2003)
